In patent publication US20200347130A1 (JIANGSU HENGRUI MEDICINE, published 2020) one finds EC50, IC50 and Kd data, which are given here for ten molecules.

Where a chain is given by its changes, count along the chain named.

The chains are these.
B1: h1722-005 (antibody, V domains shown)
VH: EVQLVQSGAEVKKPGSSVKVSCKASGGTFSDYWMHWVRQAPGQGLEWMGMLHPNSGTTSFNEKFKIRVTITADKSTSTAYMELSSLRSEDTAVYYCARDYSGPFAYWGQGTLVTVSS
VL: DIQMTQSPSSLSASVGDRVTITCSASSSVNYIHWYQQKPGKAPKRWIYDTSKLASGVPSRFSGSGSGTDFTLTISSLQPEDFATYYCQQWRSNPLTFGQGTKLEIK
notes: Only variable regions are tied to this name
B2: h1719-003 (antibody, V domains shown)
VH: EVTLKESGPVLVKPTETLTLTCTVSGFSLSSYGVSWVRQPPGKGLEWLGVIWGDGNTNYHSVLISRLTISKDTSKSQVVLTLTNMDPVDTATYYCAKNNYYGSRYGYPMDYWGQGTTVTVSS
VL: DIQMTQSPSSVSASVGDRVTITCKATQDVGTAVAWYQQKPGKAPKLLIYWASTRHTGVPSRFSGSGSGTDFTLTISSLQPEDFATYYCQQYGSSVLTFGGGTKVEIK
notes: also called M719-003
B3: h1722-008 (antibody, V domains shown)
VH: B1 VH with G27N, R38K, M48I, V68T, A72I, R98S
VL: B1 VL
notes: as for B1
B4: h1722-012 (antibody, V domains shown)
VH: B1 VH with G27N, R38K, M48I, V68T, A72I, R98S
VL: B1 VL with M4L, Y48F, F70Y
notes: as for B1
B5: h1722-011 (antibody, V domains shown)
VH: B1 VH with R38K, M48I, A72I, R98S
VL: B1 VL with M4L, Y48F, F70Y
notes: as for B1
B6: h1722-009 (antibody, V domains shown)
VH: B1 VH
VL: B1 VL with M4L, Y48F, F70Y
notes: as for B1
B7: h1719-007 (antibody, V domains shown)
VH: B2 VH with N98Q, M109L
VL: B2 VL
notes: as for B1
B8: h1719-008 (antibody, V domains shown)
VH: B2 VH with N99Y, M109L
VL: B2 VL
notes: as for B1
B9: h1719-016 (antibody, V domains shown)
VH: B2 VH with N98Q, M109I
VL: B2 VL with A43S, S60E, Y87F
notes: as for B1
B10: h1719-013 (antibody, V domains shown)
VH: B2 VH with N98Q, M109L
VL: B2 VL with A43S, S60E, Y87F
notes: as for B1

The first assay deals with T1, Full-length human CD96 on CHO-S cells (human, UniProt P40200 22-585).
T1 construct: also called CD96-CHOs; hCD96-CHOs
T1 sequence: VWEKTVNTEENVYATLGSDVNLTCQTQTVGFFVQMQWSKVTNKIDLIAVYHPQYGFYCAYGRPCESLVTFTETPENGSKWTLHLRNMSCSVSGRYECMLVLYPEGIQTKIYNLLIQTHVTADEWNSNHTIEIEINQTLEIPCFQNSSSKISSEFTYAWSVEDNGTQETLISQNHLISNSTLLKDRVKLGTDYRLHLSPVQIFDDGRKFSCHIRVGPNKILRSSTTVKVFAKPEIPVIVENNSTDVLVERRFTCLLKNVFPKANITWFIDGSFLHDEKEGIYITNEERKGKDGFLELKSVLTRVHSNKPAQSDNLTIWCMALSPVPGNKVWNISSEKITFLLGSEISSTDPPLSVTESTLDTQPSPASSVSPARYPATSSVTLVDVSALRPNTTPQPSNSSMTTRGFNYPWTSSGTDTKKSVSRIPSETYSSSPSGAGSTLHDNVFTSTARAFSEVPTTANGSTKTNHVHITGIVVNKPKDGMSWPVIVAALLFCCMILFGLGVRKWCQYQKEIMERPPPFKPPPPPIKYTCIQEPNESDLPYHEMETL
The experiment in a line: cell ELISA, fixed CD96-overexpressing CHO-S cells. How it is done: The binding capacity of the anti-CD96 antibody was tested by binding experiments of the antibody to human CD96 protein overexpressing CHO-S cells. The full-length CD96 plasmid was transfected into CHO-S cells by electrotransfection, and cells were then screened for two weeks under pressure for the detection of the expression of CD96. After the over-expressing cells were fixed at the bottom of the 96-well plate, the density of the signal after adding the antibody was used to judge the binding activity of the antibody to CD96 overexpressing CHO-S cells. The specific experimental method is as follows:
The cells were seeded at a density of 9×10⁴/100 μL/well in a 96-well plate and cultured overnight. After aspirating the supernatant, the plate was washed once with PBS, subsequently, 100 μl/well immunostaining fixation solution (Biyuntian, P0098) was added and fixed for one hour at room temperature, and the plate was washed three times with PBS. Once the liquid was discarded, 250 μl/well of 5% skim milk (BD, 232100) blocking solution diluted with PBS was added, and the plate was blocked in an incubator at 37° C. for 2.5 hours. After blocking, the blocking solution was discarded, the plate was washed 4 times with PBST buffer (pH 7.4 PBS containing 0.05% tween-20), followed by diluting 50 μl/well of different concentrations of the antibodies (hybridoma purification antibody or humanized antibody) to be tested the plate was incubated in an incubator at 37° C. for 2 hours. After incubation, the plate was wash 4 times with PBST. […] After washing the plate 4 times with PBST, 50 μl/well of TMB chromogenic substrate (KPL, Cat No. 52-00-03) was added, the plate was incubated at room temperature for 10-25 min, followed by adding 50 μl/well of 1M H₂SO₄ to stop the reaction. The absorption value was read at 450 nm with a NOVOStar microplate reader, and the EC50 value of the CD96 antibodies to CD96 overexpressing CHO-S cells was calculated (see FIG. 1 and Table 15).
On the technique in general: ELISA stands for enzyme-linked immunosorbent assay.
In turn, B1 yielded a 50% effective concentration (EC50) of 0.045 nM.
On the same count and under the same terms, the figure for B2 is 0.028 nM.

Another assay deals with T2, CD96 extracellular region with His tag (CD96-His) (human, UniProt P40200 22-519).
T2 construct: also called CD96-ECD-His; Bio-CD96-His (biotin-labelled form)
T2 sequence: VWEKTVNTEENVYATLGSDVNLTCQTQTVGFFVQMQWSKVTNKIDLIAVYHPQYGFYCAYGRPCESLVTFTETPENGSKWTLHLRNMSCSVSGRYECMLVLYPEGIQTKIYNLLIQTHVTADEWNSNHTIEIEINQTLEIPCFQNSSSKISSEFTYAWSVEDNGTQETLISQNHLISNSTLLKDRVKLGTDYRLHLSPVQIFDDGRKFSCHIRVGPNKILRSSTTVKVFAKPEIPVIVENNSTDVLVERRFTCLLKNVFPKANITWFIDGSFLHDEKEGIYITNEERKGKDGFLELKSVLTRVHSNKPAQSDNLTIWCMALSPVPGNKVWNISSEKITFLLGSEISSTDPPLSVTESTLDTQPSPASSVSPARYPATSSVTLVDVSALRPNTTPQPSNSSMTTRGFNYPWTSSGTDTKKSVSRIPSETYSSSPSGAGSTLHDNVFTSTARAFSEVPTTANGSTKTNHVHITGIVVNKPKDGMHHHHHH
The assay is described as follows: ELISA, CD96-His coated. The method, then: The binding capacity of the anti-CD96 antibody was tested by ELISA to determine the binding of the antibody to human CD96 protein. The His-tagged CD96 fusion protein was used to coat the microtiter plate, and the intensity of the signal after adding with the antibody was used for evaluating the binding activity of the antibody and CD96. The specific experimental method is as follows:
CD96-His with the sequence of SEQ ID NO: 4 prepared in Embodiment 1 was diluted to a concentration of 2 μg/ml with PBS buffer (Shanghai Yuanpei Biotechnology Co., Ltd. Cat No. B320), pH 7.4, added to a 96-well microtiter plate (Corning, Cat No. CLS3590-100EA) at a volume of 50 μl/well, and placed in an incubator at 37° C. for 2 hours. After discarding the liquid, 250 μl/well of 5% skim milk (BD, Cat No. 232100) blocking solution diluted with PBS was added, and the plate was incubated at 37° C. for 2.5 hours or at 4° C. overnight (16-18 hours) for blocking. After blocking, the blocking solution was discarded, and the plate was washed 4 times with PBST buffer (pH 7.4 PBS containing 0.05% tween-20). 50 μl/well of different concentrations of the antibodies to be tested (hybridoma purification antibody or humanized antibody) diluted with sample dilution was added, and the plate was incubated in an incubator at 37° C. for 1 hour. […] After washing the plate 4 times with PBST, 50 μl/well of TMB chromogenic substrate (KPL, Cat No. 52-00-03) was added, and the plate was incubated at room temperature for 5-15 minutes, followed by adding 50 μl/well of 1M H₂SO₄ to stop the reaction. The absorption value was read at 450 nm with a NOVOStar microplate reader, and the EC50 value of the binding of CD96 antibody to human CD96 was calculated (see Table 13).
With B1, the EC50 was 0.072 nM.
Same read-out and setting: the figure for B2 is 0.085 nM.

In a further assay the target is T2, CD96 extracellular region with His tag …. The experiment in a line: blocking cell ELISA: antibody premixed with Bio-CD96-His (0.5 ug/mL), binding to fixed CD155-CHO cells. The method, then:
CD155-CHO cells (constructed by Shanghai Hengrui) were seeded in 96-well culture plates at a density of 9×10⁴/100 μL/well and cultured overnight. After aspirating the supernatant, the plate was washed once with PBS, 100 μl/well of immunostaining fixation solution (Biyuntian, Cat No. P0098) was added and fixed for one hour at room temperature, and the plate was washed three times with PBS. After discarding the liquid, 250 μl/well of 5% skim milk (BD, Cat No. 232100) blocking solution diluted with PBS was added, and the plate was blocked in an incubator at 37° C. for 2.5 hours. After blocking, the blocking solution was discarded, subsequently, the plate was washed 4 times with PBST buffer (pH 7.4 PBS containing 0.05% tween-20). 50 μl/well of antigen-antibody pre-incubation solution (gradient concentrations of the hybridoma antibody to be tested and CD96-Fc at a final concentration of 0.5 μg/mL were premixed at 37° C. for 30 minutes, or gradient concentrations of humanized antibody samples and Bio-CD96-His at a final concentration of 0.5 μg/mL were premixed at 37° C. for 30 minutes) (Biotin-labeled kit, Dongren Chemical, Cat No. LK03) was added, and the plate was incubated in an incubator at 37° C. for 2 hours. After incubation, the reaction solution in the microtiter plate was discarded, the plate was washed 4 times with PBST, and 50 μl/well of HRP-labeled goat anti-human secondary antibody (Jackson Immuno Research, Cat No. 109-035-003) diluted with sample dilution or HRP-labeled streptavidin diluted with sample dilution (Sigma, Cat No. 52438) was added, followed by incubating at 37° C. for 1 hour. After washing the plate 4 times with PBST, 50 μl/well of TMB chromogenic substrate (KPL, Cat No. 52-00-03) was added, the plate was incubated at room temperature for 10-20 minutes, followed by adding 50 μl/well of 1M H₂SO₄ to stop the reaction. The absorption value was read at 450 nm with a NOVOStar microplate reader, and the EC50 value of the effect of CD96 antibody on blocking the binding between the antigens and CD155-CHO cells was calculated (see FIG. 2 and Table 16).
With B2, the half-inhibitory concentration (IC50) stood at 0.096 nM.

The next assay has the same target. The assay is described as follows: SPR (Biacore), antibody captured, CD96-ECD-His as mobile phase. From the text: Protein A biosensor chip was used to capture antibodies to be tested, then CD96 antigen was flowed on the surface of the chip, and real time reaction signal was detected by Biacore to obtain the binding and dissociation curve. After the dissociation of each experimental cycle was completed, the biosensor chip was washed and regenerated with a glycine-hydrochloric acid regeneration solution (pH 1.5).
For B1, binding was characterised by a dissociation constant (Kd) of 9.87 nM.
Consider B3, for which the Kd turned out to be 1 nM.
The same measure, in the same setting: with B4 the figure was 0.781 nM; with B5, 0.948 nM; with B6, 4.55 nM.
Same read-out and setting: with B7 the figure was 25.5 nM.
Still for that read-out and setting: with B8 the figure was 17.6 nM; with B9, 90.7 nM; with B10, 19.8 nM.

A word on the EC50: it is the concentration needed to bring the measured effect to its halfway point. A word on the IC50: it is the concentration that inhibits the measured activity by half. As a reminder, the Kd is the constant that tells how readily two partners part at equilibrium. High values mean lower affinity, low ones higher affinity.
